Reference: patent US7053264B2, “Nuclear reprogramming using IWSI and related chromatin remodeling ATPases” (Sangamo Biosciences, Inc., priority 2000, dated 2006)
Substitutions are numbered along the chain they refer to.

Experiments:
[1] = test system: nuclei of Xenopus XTC-2 cells; assay: Nuclear remodeling assay: permeabilized somatic nuclei incubated in Xenopus egg S phase extract, TBP in nuclear pellet by immunoblot; type: biochemical; conditions: agent added to nuclear remodeling reaction in egg extract; immunoblot FIG. 1A
Procedure: To simplify nuclear remodeling assays by eliminating nuclear transport steps, both the plasma membrane and nuclear envelope of Xenopus XTC-2 cells (henceforth called nuclei) were permeabilized with a detergent, essentially as described in Adam et al. (1992) Methods Enzymol. […] Xenopus XTC-2 cells were permeabilized with 30 μg/ml digitonin for three minutes using the LL-Bsa method (Gurdon (1976) J. Embryol. Exp. Morphol. 36:5235407) replacing lysolecithin (which caused tight aggregation of nuclei) by digitonin. […] The permeability of the nuclear envelope was monitored by the passive entry of fluorescence-labeled immunoglobulin G (150k Da) into the nuclei (Newmeyer et al. (1986) J Cell Biol 103:2091–2102). […]
After incubation for two hours at room temperature 100 μl of Buffer B (10 mM HEPES pH 7.8, 75 mM KCl, 4 mM magnesium chloride, 250 mM sucrose, 0.5 mM spermidine trihydrochloride, 0.15 mM spermine tetrahydrochloride, 1 mM dithiothreitol, 10 mM β-glycerophosphate, 1 μg/ml leupeptin, 2 μg/ml pepstatin A, 100 μM 4-(2-aminoethyl)-benzenesulfonyl fluoride, AEBSF) was added and the reaction mix was centrifuged at 15,000× g for 10 min. The pellet, called remodeled nuclei, was analyzed by immunoblotting using SuperSignal West Dura (Pierce, Rockford, Ill.) as a substrate of horseradish peroxidase.

[2] = test system: nuclei of Xenopus XTC-2 cells; assay: Biochemical complementation assay: release of TBP from nuclei by purified proteins combined with SP Sepharose flow through (FT); conditions: for reconstitution of release of TBP from nuclei: combined with SP Sepharose FT in the presence of ERS, FIG. 4D
Procedure: (§1) “Extract” refers to unfractionated egg extract. […] The gel was stained with Coomassie Blue. FIG. 4C depicts ATPase activity of ISWI-D and rISWI. ATPase activity was determined in the presence of buffer (−), DNA (D), or nucleosomes (N). The arrowhead indicates the free phosphate generated by ATP hydrolysis. FIG. 4D depicts biochemical complementation assays for activities capable of removing TBP from the nucleus. Egg extract (Ext), SP Sepharose flow through (FT), and FT complemented with various purified proteins at indicated concentrations were compared for remodeling activity by monitoring residual TBP in the nuclear pellet after incubation of nuclei in an egg extract. All lanes included ERS except lanes 7 and 8, which contained apyrase. Np indicates nucleoplasmin.
(§2) The ISWI-D complex was purified from Xenopus egg extract (FIG. 4A), and shown to contain two subunits: p195 and ISWI (FIG. 4B). For the purification, egg extract was fractionated through BioRex 70 (Bio-Rad, Hercules, Calif.) and MonoQ (Amersham Pharmacia, Piscataway, N.J.) essentially as described in Wade et al. (1998) Curr Biol 8:843–846. The MonoQ ISWI-D peak (eluting at approximately 0.45 M NaCl) was further purified by gradient elution on MonoS (linear gradient from 0.1 to 0.5 M NaCl in Buffer A) as described in Wade et al., supra. ISWI-D was eluted at approximately 0.3 M NaCl. Drosophila rISWI was produced in E. coli and purified by IMPACT T7 system (New England Biolabs, Beverly, Mass.) and Superdex 200 gel filtration column (Amersham Pharmacia). ATPase activity was tested as described in Corona et al, supra.
Either ISWI-D complex or rISWI were essential for release of TBP from nuclei. The endogenous activity in the extract responsible for the release of TBP from chromatin was depleted by applying the extract to SP Sepharose, and restored by combining the SP Sepharaose flow through (FT) and the 0.5 M NaCl eluate from BioRex 70 that contained ISWI (FIG. 4D, lanes 2 and 3). FT was prepared from SP Sepharose (Amersham Pharmacia) by equilibrating the resin with Buffer A and briefly centrifuging to deplete the buffer. The egg extract was incubated with the equilibrated resin for 30 minutes in a cold room and briefly centrifuged to collect FT. […] Release of TBP from nuclei by ISWI plus FT was also confirmed by immunofluorescence.
Three other proteins known to modify protein-DNA interactions (TAF172, the Mi-2 complex and nucleoplasmin) were also tested in this biochemical complementation assay. Recombinant human TAF172 was prepared in a baculovirus expression system (see Chicca et al. (1998) Mol Cell Biol 18:1701–1710), while the Mi-2 complex and nucleoplasmin were isolated from Xenopus egg extracts. TAF 172, the human homologue of yeast Mot1, also belongs to the SWI2/SNF2 superfamily and removes TBP from DNA in vitro (Auble et al. (1994) Genes Dev 8:1920–1934; Chicca et al., supra). The Xenopus Mi-2 complex contains Mi-2, also a member of the SWI2/SNF2 superfamily, in addition to five other subunits and remodels chromatin (Wade et al (1998) Curr Biol 8:843–846; Guschin et al. (2000) Biochem 39:5238–5245). Nucleoplasmin remodels sperm chromatin upon fertilization (Dimitrov et al., supra; Philpott et al. (2000) Cell 69:759767). […] Higher concentrations of these proteins were also tested, with similar results.

nuclear matrix = assay: Release of TBP from purified nuclear matrix, immunoblot; type: biochemical, Xenopus; conditions: presence of ERS; ISWI-D or rISWI added to the FT fraction; FIG. 5
Procedure: Analysis of histone H2B is shown as a control. Nuclear matrix was prepared as described in the Examples, and nuclear matrix proteins were separated by gel electorphoresis. Each lane contained matrix from 4×10^5 nuclei. The gel was blotted, and the blots were analyzed with antibodies to TBP or H2B. Nuclei were incubated with egg extract (lanes 2 and 3) or various combinations of proteins and protein fractions (lanes 4–8) prior to preparation of nuclear matrix. Analysis of a preparation of nuclear matrix from nuclei that were not incubated with extract or proteins is shown in lane 1. Presence or absence of an ERS in the incubation is indicated by “+” and “−,” respectively.
To understand the mechanism of the release of TBP further, nuclear matrix was prepared from the nuclei that had not been incubated in the egg extract, by using 0.5% Triton X-100, DNase I, 250 mM ammonium sulfate, and 2M NaCl. The nuclear matrix was prepared essentially as described D. L. Spector and D. Goldman, L. L. A, in Cells, A Laboratory Manual. (Cold Spring Harbor Laboratory Press, New York, 1997) pp. 44.1–44.8. […]
The purified nuclear matrix was incubated in the egg extract and its composition was analyzed by immunoblotting.

nucleosomes = assay: ATPase activity in the presence of buffer, DNA or nucleosomes; type: biochemical; conditions: FIG. 4C
Procedure: as §1
as §2, with “Drosophila rISWI was produced in E. coli and purified by IMPACT T7 system (New England Biolabs, Beverly, Mass.) and Superdex 200 gel filtration column (Amersham Pharmacia). ATPase activity was tested as described in Corona et al, supra.” left out

Q: With apyrase as the molecule, how does the “effect on exclusion (loss) of TBP from nuclei in egg extract” value [1] read?
A: exclusion was inhibited

Q: “TAF172: recombinant human TAF172, homologue of yeast Mot1, prepared in a baculovirus expression system” was tested. Which “reconstitution of release of TBP from nuclei” value (“reconstitution” for short) [2] did it give?
A: None of these proteins proved capable of reconstituting TBP removal activity

Q: With “nucleoplasmin: molecular chaperone isolated from Xenopus egg extracts; remodels sperm chromatin” as the molecule, how does the “reconstitution” value [2] read?
A: None of these proteins proved capable of reconstituting TBP removal activity

Q: How did the “effect on exclusion (loss) of TBP from nuclei in egg extract” value [1] turn out when aphidicholin was run?
A: neither aphidicholin nor arabinosylcytosine (both inhibitors of DNA replication) inhibited the loss of TBP

B1: rISWI: recombinant Drosophila ISWI produced in E. coli (protein, UniProt Q24368 1-1027, looked up)
Chromatin-remodeling complex …: MSKTDTAAVEATEENSNETTSDAATSSSGEKEAEFDNKIEADRSRRFDFLLKQTEIFTHFMTNSAKSPTKPKGRPKKIKDKDKEKDVADHRHRKTEQEEDEELLAEDSATKEIFRFDASPAYIKSGEMRDYQIRGLNWMISLYENGINGILADEMGLGKTLQTISLLGYLKHFKNQAGPHIVIVPKSTLQNWVNEFKKWCPSLRAVCLIGDQDTRNTFIRDVLMPGEWDVCVTSYEMCIREKSVFKKFNWRYLVIDEAHRIKNEKSKLSEILREFKTANRLLITGTPLQNNLHELWALLNFLLPDVFNSSEDFDEWFNTNTCLGDDALITRLHAVLKPFLLRRLKAEVEKRLKPKKEMKIFVGLSKMQRDWYTKVLLKDIDVVNGAGKVEKMRLQNILMQLRKCTNHPYLFDGAEPGPPYTTDTHLVYNSGKMAILDKLLPKLQEQGSRVLIFSQMTRMLDILEDYCHWRNYNYCRLDGQTPHEDRNRQIQEFNMDNSAKFLFMLSTRAGGLGINLATADVVIIYDSDWNPQMDLQAMDRAHRIGQKKQVRVFRLITESTVEEKIVERAEVKLRLDKMVIQGGRLVDNRSNQLNKDEMLNIIRFGANQVFSSKETDITDEDIDVILERGEAKTAEQKAALDSLGESSLRTFTMDTNGEAGTSSVYQFEGEDWREKQKLNALGNWIEPPKRERKANYAVDAYFREALRVSEPKAPKAPRPPKQPIVQDFQFFPPRLFELLDQEIYYFRKTVGYKVPKNTELGSDATKVQREEQRKIDEAEPLTEEEIQEKENLLSQGFTAWTKRDFNQFIKANEKYGRDDIDNIAKDVEGKTPEEVIEYNAVFWERCTELQDIERIMGQIERGEGKIQRRLSIKKALDQKMSRYRAPFHQLRLQYGNNKGKNYTEIEDRFLVCMLHKLGFDKENVYEELRAAIRASPQFRFDWFIKSRTALELQRRCNTLITLIERENIELEEKERAEKKKKAPKGSVSAGSGSASSNTPAPAPQPKASQKRKSEVVATSSNSKKKKK
Q: Which “reconstitution” value [2] does the source give for B1 here?
A: competent to reconstitute release of TBP from nuclei

Q: What about the “release of TBP from nuclei in combination with nucleoplasmin” value ([2]; nucleoplasmin substituted for the FT fraction) of the same molecule?
A: incapable of releasing TBP from nuclei

Q: What about the “release of TBP from nuclei in the absence of FT” value ([2]; without FT fraction) of the same molecule?
A: Neither the ISWI-D complex nor rISWI could release TBP from nuclei

Q: What about the “release of TBP from the nuclear matrix” value (nuclear matrix) of the same molecule?
A: resulted in release of TBP

B2: mutant of rISWI: rISWI in which lysine 159 in the adenine nucleotide binding domain was replaced with arginine; negative control (protein, UniProt Q24368 1-1027, looked up, variant K159R)
Chromatin-remodeling complex …: B1 Chromatin-remodeling complex … with K159R
Q: With B2 as the molecule, how does the “reconstitution” value [2] read?
A: not competent to reconstitute release of TBP from nuclei

Q: What about the “nucleosomal ATPase activity” value (nucleosomes) of the same molecule?
A: lacked nucleosomal ATPase activity
